Data published in US20240116985A1 (published 2024).
Each block holds one binder with its values, some of them ahead of it. Starred links: 1 amine or outer side, 2 acyl side, 3 side chain; linkers in the order of their positions; H or OH if unused. Positions of bridges follow the written chain, without caps; N, C: chain ends. Non-standard residues stand in square brackets, D forms with d. Primed or numbered codes have the meaning given here. *: point of attachment. B5(29) = 2-amino-2-(pent-4-en-1-yl)hept-6-enoic acid (2,2-bis(4-pentenyl)glycine), stitching residue bearing both staples, C=CCCCC(CCCC=C)(N[*:1])C(=O)[*:2]; PyrS2″ = (S)-3-amino-1-((pent-4-en-1-yloxy)carbonyl)pyrrolidine-3-carboxylic acid (stapling residue), C=CCCCOC(=O)N1CC[C@@](N[*:1])(C(=O)[*:2])C1; PyrS3″ = (S)-3-amino-1-((hex-5-en-1-yloxy)carbonyl)pyrrolidine-3-carboxylic acid (stapling residue), C=CCCCCOC(=O)N1CC[C@@](N[*:1])(C(=O)[*:2])C1; B5(6) = 2-amino-2-(pent-4-en-1-yl)hept-6-enoic acid (bis(4-pentenyl)glycine), stitching residue, C=CCCCC(CCCC=C)(N[*:1])C(=O)[*:2]; PyrS2 = (S)-3-amino-1-((pent-4-en-1-yloxy)carbonyl)pyrrolidine-3-carboxylic acid, C=CCCCOC(=O)N1CC[C@@](N[*:1])(C(=O)[*:2])C1; B5(3) = 2,2-bis(4-pentenyl)glycine (stitching residue), C=CCCCC(CCCC=C)(N[*:1])C(=O)[*:2]; B5 = 2-amino-2-(pent-4-en-1-yl)hept-6-enoic acid, C=CCCCC(CCCC=C)(N[*:1])C(=O)[*:2]; Bta = N[C@@H](Cc1csc2ccccc12)C(=O)O; αAllylPro = C=CC[C@@]1(C(=O)O)CCCN1; tBuAla = CC(C)(C)C[C@H](N)C(=O)O; 3Thi = N[C@@H](Cc1ccsc1)C(=O)O; S8 = C=CCCCCCC[C@](C)(N)C(=O)O; hSer = N[C@@H](CCO)C(=O)O; Butyryl = CCCC(=O)*

Key:
[1] = biological target: T1, full-length beta-Catenin (Uniprot ID P35222) (Homo sapiens (Human), UniProt P35222 1-781); experiment: fluorescence polarization competition; displacement of 5FAM-TCF4(10-53) from full-length beta-catenin
T1 construct: Used full-length in the fluorescence polarization probe solution (10 nM); also called bCat; B-Catenin
T1 sequence: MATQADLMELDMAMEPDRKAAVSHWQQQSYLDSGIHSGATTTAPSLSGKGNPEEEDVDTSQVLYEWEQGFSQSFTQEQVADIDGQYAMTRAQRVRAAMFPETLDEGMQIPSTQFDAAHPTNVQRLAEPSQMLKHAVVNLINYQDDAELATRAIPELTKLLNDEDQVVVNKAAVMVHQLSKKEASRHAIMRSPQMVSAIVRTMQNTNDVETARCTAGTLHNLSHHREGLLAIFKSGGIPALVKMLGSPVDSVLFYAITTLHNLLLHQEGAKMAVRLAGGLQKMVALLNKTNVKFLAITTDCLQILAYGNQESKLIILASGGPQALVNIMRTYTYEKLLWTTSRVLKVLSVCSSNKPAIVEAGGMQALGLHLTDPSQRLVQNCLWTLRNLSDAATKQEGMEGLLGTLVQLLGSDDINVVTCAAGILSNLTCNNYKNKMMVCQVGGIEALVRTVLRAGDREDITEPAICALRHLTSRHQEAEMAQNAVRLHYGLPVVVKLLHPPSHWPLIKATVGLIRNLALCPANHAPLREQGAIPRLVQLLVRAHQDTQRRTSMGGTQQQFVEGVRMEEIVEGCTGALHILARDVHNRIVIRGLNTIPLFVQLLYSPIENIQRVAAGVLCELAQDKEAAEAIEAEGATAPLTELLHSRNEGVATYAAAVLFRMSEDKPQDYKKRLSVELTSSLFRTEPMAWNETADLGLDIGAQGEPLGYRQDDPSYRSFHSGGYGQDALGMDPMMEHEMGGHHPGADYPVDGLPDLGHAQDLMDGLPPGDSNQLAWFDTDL
Description: The plate was incubated protected from light for 60 minutes at 20° C. prior to read. Reads were performed on a CLARIOstar plate reader (BMG Labtech) in duplicate, and data were fitted to a 1:1 binding model with hill slope using an in-house script. All provided concentrations are final concentrations.

[2] = biological target: T2, B-cat-Halo (beta-catenin HaloTag fusion expressed in HEK293 cells) (Homo sapiens (Human), UniProt P35222 1-781); experiment: cell-based or functional assay
T2 sequence: T1 sequence

[3] = biological target: T3, B-cat-Halo (beta-catenin HaloTag NanoBRET construct expressed in HEK293 cells) (UniProt P35222 1-781); experiment: cell-based or functional assay
T3 sequence (looked up): T1 sequence

B3: I-479 (peptide)
peptide: XDAXDEAAFNXFXH
modifications: not fully specified; Ac-PL3-Asp-Ala-B5-Asp-Glu-Ala-Ala-Phe-Asn-S8-Phe-BztA-1MeH-NH2; N-terminal acetyl, C-terminal amide; stapled PL3-B5 and B5-S8
notes: Stapled peptide composition
EC50 [1]: 0.027 µM

B5: I-892 (peptide)
peptide: Ac-[αAllylPro]D[tBuAla][B5(3)]DDAK(mPEG2)FN[PyrS2][3Thi][Bta]Q-NH2
modifications: staple 1-4, 4-11; not fully specified
NanoBRET Abs IC50 [3]: > 20 µM

B8: I-817 (peptide)
peptide: Ac-[αAllylPro]D[tBuAla][B5]DDAAFN[PyrS2″][3Thi][Bta][dT]-NH2
modifications: staple 1-4, 4-11
NanoBRET % inh @ 10 uM [2]: 45% | NanoBRET IC50 [2]: 6.8 µM

B9: I-835 (peptide)
peptide: Ac-[αAllylPro]D[tBuAla][B5(3)]DDAAFN[PyrS3″][3Thi][Bta]N[dA]-NH2
modifications: staple 1-4, 4-11
NanoBRET % inh @ 10 uM [2]: 27.6%

B10: I-494 (peptide)
peptide: XDAXDEAAFQXFXQ
modifications: not fully specified; Ac-PL3-Asp-Ala-B5-Asp-Glu-Ala-Ala-Phe-Gln-S8-Phe-BztA-DGIn-NH2 (so in the source); read as D-Gln at position 14); N-terminal acetyl, C-terminal amide; stapled PL3-B5 and B5-S8
notes: Stapled peptide composition
EC50 [1]: 0.082 µM

B12: I-491 (peptide)
peptide: XDAXDEAAFQXFXS
modifications: not fully specified; Ac-PL3-Asp-Ala-B5-Asp-Glu-Ala-Ala-Phe-Gln-S8-Phe-BztA-Hse-NH2; N-terminal acetyl, C-terminal amide; stapled PL3-B5 and B5-S8
notes: Stapled peptide composition
EC50 [1]: 0.153 µM

B16: I-496 (peptide)
peptide: Ac-[αAllylPro]DA[B5(6)][hSer]EAAFQ[S8]F[Bta]Q-NH2
modifications: staple 1-4, 4-11; not fully specified; printed as Ac-PL3-Asp-Ala-B5-Hse-Glu-Ala-Ala-Phe-Gln-S8-Phe-BztA-Gln-NH2
notes: Stapled peptide composition
EC50 [1]: 5 µM

B17: I-492 (peptide)
peptide: XDAXDEAAFQXFXS
modifications: not fully specified; Ac-PL3-Asp-Ala-B5-Asp-Glu-Ala-Ala-Phe-Gln-S8-Phe-BztA-Hse-NH2; N-terminal acetyl, C-terminal amide; stapled PL3-B5 and B5-S8
notes: Stapled peptide composition
EC50 [1]: 0.053 µM

B19: I-818 (peptide)
peptide: Ac-[αAllylPro]D[tBuAla][B5]DDAAFN[PyrS2″][3Thi][Bta][dN]-NH2
modifications: staple 1-4, 4-11
NanoBRET % inh @ 10 uM [2]: 31.4%

Second part, the binder after the results:

EC50 [1]: 0.181 µM
B1: I-495 (peptide)
peptide: XDIXDEAAFQXFXN
modifications: not fully specified; Ac-PL3-Asp-Ile-B5-Asp-Glu-Ala-Ala-Phe-Gln-S8-Phe-BztA-Asn-NH2; N-terminal acetyl, C-terminal amide; stapled PL3-B5 and B5-S8
notes: Stapled peptide composition

EC50 [1]: 0.102 µM
B2: I-475 (peptide)
peptide: XDIXDEAAFNXFXQ
modifications: not fully specified; Ac-PL3-Asp-aIle-B5-Asp-Glu-Ala-Ala-Phe-Asn-S8-Phe-BztA-Gln-NH2; N-terminal acetyl, C-terminal amide; stapled PL3-B5 and B5-S8
notes: Stapled peptide composition

NanoBRET IC50 [2]: 11.7 µM
B4: I-809 (peptide)
peptide: Ac-[αAllylPro]D[tBuAla][B5(3)]DDAAFT[PyrS2″][3Thi][Bta]Q-NH2
modifications: staple 1-4, 4-11

NanoBRET IC50 [2]: 11.8 µM
B6: I-815 (peptide)
peptide: Ac-[αAllylPro]D[tBuAla][B5]DDAAFN[PyrS2″][3Thi][Bta]S-NH2
modifications: staple 1-4, 4-11

NanoBRET Abs IC50 [3]: > 20 µM
B7: I-897 (peptide)
peptide: Ac-[αAllylPro]D[tBuAla][B5(3)]DDAK(Butyryl)FN[PyrS2][3Thi][Bta]Q-NH2
modifications: staple 1-4, 4-11

EC50 [1]: 0.088 µM
B11: I-493 (peptide)
peptide: XDAXDEAAFQXFXS
modifications: not fully specified; Ac-PL3-Asp-Ala-B5-Asp-Glu-Ala-Ala-Phe-Gln-S8-Phe-BztA-DSer-NH2; N-terminal acetyl, C-terminal amide; D-Ser at position 14; stapled PL3-B5 and B5-S8
notes: Stapled peptide composition

EC50 [1]: 5 µM
B13: I-497 (peptide)
peptide: Ac-[αAllylPro]DA[B5(6)][hSer]EAAFQ[S8]F[Bta]Q-NH2
modifications: staple 1-4, 4-11; not fully specified; printed as Ac-PL3-Asp-Ala-B5-Hse-Glu-Ala-Ala-Phe-Gln-S8-Phe-BztA-Gln-NH2
notes: Stapled peptide composition

EC50 [1]: 5 µM
B14: I-498 (peptide)
peptide: Ac-[αAllylPro]DA[B5(6)][hSer]EAAFQ[S8]F[Bta]Q-NH2
modifications: staple 1-4, 4-11; not fully specified; printed as Ac-PL3-Asp-Ala-B5-Hse-Glu-Ala-Ala-Phe-Gln-S8-Phe-BztA-Gln-NH2
notes: Stapled peptide composition

EC50 [1]: 0.119 µM
B15: I-477 (peptide)
peptide: Ac-[αAllylPro]DT[B5(29)]DEAAFQ[S8]F[Bta]Q-NH2
modifications: staple 1-4, 4-11
notes: Stapled peptide composition

NanoBRET IC50 [2]: 12.7 µM
B18: I-814 (peptide)
peptide: Ac-[αAllylPro]D[tBuAla][B5]DDAAFN[PyrS2″][3Thi][Bta]T-NH2
modifications: staple 1-4, 4-11
